Target: MOLT4 receptor (putative E2 receptor on human lymphoma T-cells, MOLT-4 cells) (human)
Assay: cytofluorimetric binding assay on MOLT-4 cells

Question: “intracellularly produced truncated HCV E2 terminating at amino acid 715 (E2715), from CHO cell lysate (from UniProt P26664 384-715)” was tested. Which fold more efficient binding to MOLT-4 cells than secreted E2 did it give?
Answer: 30 fold

From US7429385
